Data reported in patent publication US20240254229A1 (Molecular Partners, published 2024).
Numbering of substitutions follows the chain as printed. Like-named read-outs stand apart in the source and are kept apart here. Each block holds one binder with its values, some of them ahead of it.

Columns and labels:
[1] = biological target: T1, biotinylated extracellular domain of human CD123 (SEQ ID NO: 88), Fc and Avi tagged (human, UniProt P26951 19-303, biotinylated with BirA-GST (Avi tag)); experiment: SPR (ProteOn XPR36), target on GLC chip
T1 construct: also called hCD123
T1 sequence: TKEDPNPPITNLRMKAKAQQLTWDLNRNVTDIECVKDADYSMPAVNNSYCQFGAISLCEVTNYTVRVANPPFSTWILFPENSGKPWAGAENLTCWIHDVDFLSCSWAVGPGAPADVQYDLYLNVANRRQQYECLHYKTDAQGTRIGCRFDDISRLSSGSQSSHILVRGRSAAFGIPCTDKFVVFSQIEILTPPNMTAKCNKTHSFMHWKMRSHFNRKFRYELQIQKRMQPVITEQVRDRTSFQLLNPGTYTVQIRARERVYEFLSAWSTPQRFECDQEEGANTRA
Source text: (§1) For that, DARPin® protein #27, DARPin® protein #29, DARPin® protein #47 and DARPin® protein #48 and DARPin® protein #49, DARPin® protein #50, DARPin® protein #51, DARPin® protein #52, DARPin® protein #31, DARPin® protein #53, DARPin® protein #54, DARPin® protein #55, DARPin® protein #34, DARPin® protein #33, DARPin® protein #39 and DARPin® protein #36 were subcloned and expressed as described above into derivatives of the pQE30 (Qiagen) expression vector, containing an N-terminal His-tag, CD33, CD123 and/or CD70 binding ankyrin repeat domains, followed by a CD3 specific ankyrin repeat domain and for some constructs by a human serum albumin specific ankyrin repeat domain.
(§2) Briefly, biotinylated human CD70, CD123 and CD33 was diluted in PBST (PBS, pH 7.4 containing 0.005% Tween 20®) and coated on a GLC chip (BioRad) to a level of around 200, 460 and 450 resonance units (RU) respectively. HSA in NaOAc pH 5.0 was directly immobilized on the GLC chip to a level of 800 RU. Bio.CD70, bio. CD33 and bio. CD123 required to have Neutravidin coated first to a level of 6000 RU before the biotinylated targets could be applied. The interaction of the selected ankyrin repeat proteins and human CD70, CD123 and CD33 was then measured by injecting 300 μl running buffer (PBS, pH 7.4 containing 0.005% Tween 20®) containing serial dilutions of ankyrin repeat proteins covering a concentration range between 100 nM and 2.6 nM (100, 40, 16, 6.4 and 2.6 nM respectively) for multi-trace SPR measurements, with an association of 120 s and dissociation of 1200 s using a constant flow of 100 μl/min. The regeneration was performed using 30 μl of 4 mM Glycine pH 2. The signals (i.e. resonance unit (RU) values) of the interspots and a reference injection (i.e. injection of running buffer only) were subtracted from the RU traces obtained after injection of ankyrin repeat protein (double-referencing).

[2] = biological target: T2, human serum albumin (human, UniProt P02768 25-609); experiment: SPR (ProteOn XPR36), target on GLC chip
T2 construct: also called HSA; SA
Source text: as §1, §2

[3] = biological target: T3, human CD3 on primary human pan-T cells (human, UniProt P07766 23-207; P09693 23-182; P04234 22-171; P20963 22-164); experiment: Mirrorball cytometry on primary human pan-T cells, 600 µM HSA
T3 construct: whole, on cells; Native complex on T cells isolated from PBMC; also called CD3 on Pan-T cells
Procedure: (§3) The determination of T cell binding was performed with primary human T cells using Mirrorball laser scanning imaging cytometry. Therefore, primary T cells were isolated from human peripheral blood mononuclear cells (PBMCs) using a pan-T cell purification kit (Miltenyi Biotec). A titration of DARPin® protein #27, DARPin® protein #28 and DARPin® protein #29 and DARPin® protein #30 were incubated with 50′000 pan-T cells per well in presence of 600 μM human serum albumin (to mimic physiological serum concentration) for 30 minutes at 4° C. Two benchmark T-cell engagers, AMG330 and flotetuzumab were applied as controls, targeting CD33 or CD123. After washing, CD3 binding was detected by 1:100-diluted anti-penta-His Alexa Fluor 488 antibody (Qiagen). After 30 min incubation at 4° C., cells were washed and resuspended in Cytofix fixation buffer (BD Biosciences) and counterstained by 5 μM DRAQ5 (Abcam) for 15 min at RT. Median of mean fluorescence intensities of Alexa Fluor 488 binding on far-red counterstained cells were measured by Mirrorball using Cellista software (SPT Labtech) and data was plotted using GraphPad Prism 8.

[4] = biological target: T4, biotinylated extracellular domain of human CD33 (SEQ ID NO: 87), Fc and Avi tagged (human, UniProt P20138 18-259, biotinylated with BirA-GST (Avi tag)); experiment: SPR (ProteOn XPR36), target on GLC chip, DARPin as analyte
T4 construct: also called hCD33; human target hCD33

[5] = biological target: T5, extracellular domain of human CD70 (SEQ ID NO: 89), hCD70-Fc-trimer, ACRO Biosystems (human, UniProt P32970 52-193, chemically biotinylated where the biotinylated form was used); experiment: as above
T5 construct: also called human CD70-Fc-trimer; Bio.CD70
T5 sequence: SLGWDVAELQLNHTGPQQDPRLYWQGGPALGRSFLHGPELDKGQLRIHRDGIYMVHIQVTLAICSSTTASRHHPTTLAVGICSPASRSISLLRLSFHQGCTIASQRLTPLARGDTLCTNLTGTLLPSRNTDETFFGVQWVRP

[6] = biological target: T6, human scCD3εγ (scCD3εγ_Avi-Bio) (human, biotin on the C-terminal Avi-tag (in vitro, BirA) where the biotinylated form was used); experiment: SPR (ProteOn), biotinylated scCD3εγ on NLC chip, DARPin as analyte
T6 construct: Used for all SPR and HTRF results on human CD3; also called recombinant human CD3; human CD3
T6 chain: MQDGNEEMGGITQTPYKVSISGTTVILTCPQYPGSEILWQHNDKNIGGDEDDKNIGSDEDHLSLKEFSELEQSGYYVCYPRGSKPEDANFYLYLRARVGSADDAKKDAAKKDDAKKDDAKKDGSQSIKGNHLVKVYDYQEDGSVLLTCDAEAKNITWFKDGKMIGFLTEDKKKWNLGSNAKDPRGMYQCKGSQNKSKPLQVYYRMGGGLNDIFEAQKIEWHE
Procedure: The binding affinities of four purified ankyrin repeat proteins on recombinant human CD3 target were analyzed using a ProteOn instrument (BioRad) and the measurement was performed according standard procedures known to the person skilled in the art. For that, DARPin® protein #7, DARPin® protein #8 and DARPin® protein #9 and DARPin® protein #10 of the invention were subcloned and expressed as described above into derivatives of the pQE30 (Qiagen) expression vector, containing an N-terminal His-tag, CD33 and CD123 binding ankyrin repeat domains, followed by one of the four CD3 specific ankyrin repeat protein constructs.
Briefly, biotinylated human scCD3εγ was diluted in PBST (PBS, pH 7.4 containing 0.005% Tween 200) and coated on a NLC chip (BioRad) to a level of around 700-1400 resonance units (RU). The interaction of ankyrin repeat protein and human CD3 was then measured by injecting 300 μl running buffer (PBS, pH 7.4 containing 0.005% Tween 200) containing serial dilutions of ankyrin repeat proteins covering a concentration range between 64 nM and 4 nM for multi-trace SPR measurements, followed by a running buffer flow for at least 10 minutes at a constant flow rate of 60 μl/min (off-rate measurement). The regeneration was performed using 30 μl of 10 mM Glycine pH 2. The signals (i.e. resonance unit (RU) values) of the interspots and a reference injection (i.e. injection of running buffer only) were subtracted from the RU traces obtained after injection of ankyrin repeat protein (double-referencing). While binding was too weak for DARPin® protein #7, binding parameters (KD, on-rate, off-rate) against CD3 were determined for affinity matured constructs. On-rates (kₒₙ) and dissociation constants (KD) are given only as approximation because binding equilibrium was not appropriately reached even at highest samples concentration, leading to non-optimal fits for on-rates.
Dissociation constants (KD) were calculated from the estimated on- and off-rates using standard procedures known to the person skilled in the art.

[7] = biological target: T3, human CD3 on primary human pan-T cells; experiment: Mirrorball cytometry on primary human pan-T cells, 600 µM HSA; remark: listed apart in the source
Procedure: as §3, with “of CD3” for “of T cell”, “protein #7,” for “protein #27,”, “protein #8” for “protein #28”, “protein #9” for “protein #29”, “protein #10, formatted into a trispecific format (including CD33 and CD123 binding ankyrin repeat domains), DARPin® protein #11, DARPin® protein #12, DARPin® protein #13 and DARPin® protein #14 UN tetraspecific format (including an additional ankyrin repeat domain binding specifically to human serum albumin)” for “protein #30”

[8] = biological target: T3, human CD3 on primary human pan-T cells; experiment: Mirrorball laser scanning cytometry on primary human pan-T cells, anti-penta-His Alexa Fluor 488 detection, 600 µM HSA
Procedure: as §3, with “of CD3” for “of T cell”, “protein #7,” for “protein #27,”, “protein #8” for “protein #28”, “protein #9” for “protein #29”, “protein #10, formatted into a trispecific format (including CD33 and CD123 binding ankyrin repeat domains), DARPin® protein #11, DARPin® protein #12, DARPin® protein #13 and DARPin® protein #14 UN tetraspecific format (including an additional ankyrin repeat domain binding specifically to human serum albumin)” for “protein #30”

T3 sequence (P07766 23-207, chain 1 of 4): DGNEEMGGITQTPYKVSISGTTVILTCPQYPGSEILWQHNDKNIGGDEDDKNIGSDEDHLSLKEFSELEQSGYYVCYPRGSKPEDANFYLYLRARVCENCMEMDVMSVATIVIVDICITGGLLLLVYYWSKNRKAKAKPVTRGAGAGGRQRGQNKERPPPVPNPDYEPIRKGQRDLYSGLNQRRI
T3 sequence (P09693 23-182, chain 2 of 4): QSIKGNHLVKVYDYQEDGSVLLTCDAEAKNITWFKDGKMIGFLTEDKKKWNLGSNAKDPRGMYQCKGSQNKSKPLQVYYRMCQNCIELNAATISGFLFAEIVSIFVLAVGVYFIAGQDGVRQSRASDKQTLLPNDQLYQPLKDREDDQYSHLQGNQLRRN
T3 sequence (P04234 22-171, chain 3 of 4): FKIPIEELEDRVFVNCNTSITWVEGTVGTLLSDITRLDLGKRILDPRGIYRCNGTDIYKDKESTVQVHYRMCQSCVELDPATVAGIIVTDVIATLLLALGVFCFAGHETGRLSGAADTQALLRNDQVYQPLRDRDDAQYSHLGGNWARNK
T3 sequence (P20963 22-164, chain 4 of 4): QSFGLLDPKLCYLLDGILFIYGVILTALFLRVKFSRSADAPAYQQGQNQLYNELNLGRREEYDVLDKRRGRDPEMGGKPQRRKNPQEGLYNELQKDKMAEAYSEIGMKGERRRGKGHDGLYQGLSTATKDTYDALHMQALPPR
T2 sequence (P02768 25-609 limits assumed): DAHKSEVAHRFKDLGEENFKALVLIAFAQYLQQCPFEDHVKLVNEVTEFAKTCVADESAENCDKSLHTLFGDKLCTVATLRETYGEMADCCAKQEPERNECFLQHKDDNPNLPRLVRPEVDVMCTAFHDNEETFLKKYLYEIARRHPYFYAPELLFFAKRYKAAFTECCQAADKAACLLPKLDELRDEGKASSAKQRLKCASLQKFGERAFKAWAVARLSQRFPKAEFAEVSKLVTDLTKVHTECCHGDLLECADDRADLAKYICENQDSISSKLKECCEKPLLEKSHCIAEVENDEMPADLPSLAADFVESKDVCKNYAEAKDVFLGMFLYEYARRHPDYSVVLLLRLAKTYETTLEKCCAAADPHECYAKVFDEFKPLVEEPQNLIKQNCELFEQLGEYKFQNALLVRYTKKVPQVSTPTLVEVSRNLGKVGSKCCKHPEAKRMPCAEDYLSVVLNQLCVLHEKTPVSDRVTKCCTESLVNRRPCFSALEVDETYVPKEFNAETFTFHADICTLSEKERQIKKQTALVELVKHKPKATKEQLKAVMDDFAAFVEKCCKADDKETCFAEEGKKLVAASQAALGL
T4 sequence (P20138 18-259 R69G): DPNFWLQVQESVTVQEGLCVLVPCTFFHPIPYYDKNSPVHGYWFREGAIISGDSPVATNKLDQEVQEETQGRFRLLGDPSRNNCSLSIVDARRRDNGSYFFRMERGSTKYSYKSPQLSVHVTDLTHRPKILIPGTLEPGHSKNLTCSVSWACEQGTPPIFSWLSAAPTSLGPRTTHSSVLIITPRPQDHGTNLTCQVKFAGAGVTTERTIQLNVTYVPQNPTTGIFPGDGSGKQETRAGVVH

B2: DARPin® protein #8 (designed binder)
chain: DLGKKLLEAARAGQDDEVRILMANGADVNALDWLGHTPLHLAAYEGHLEIVEVLLKNGADVNAIDDNNGFTPLHLAAIDGHLEIVEVLLKNGADVNAQDKFGKTAFDISIDNGNEDLAEILQKAAGSPTPTPTTPTPTPTTPTPTPTGSDLGDKLLLAATSGQDDEVRILLAAGADVNAKDYDGDTPLHLAADEGHLEIVEVLLKAGADVNAKDYSGSTPLHAAAAYGHLEIVEVLLKAGADVNAQDVFGYTPADLAAYVGHEDIAEVLQKAAGSPTPTPTTPTPTPTTPTPTPTGSDLGQKLLEAAWAGQDDEVRELLKAGADVNAKNSRGWTPLHTAAQTGHLEIFEVLLKAGADVNAKDDKGVTPLHLAAALGHLEIVEVLLKAGADVNAQDSWGTTPADLAAKYGHEDIAEVLQKAA
notes: CD123-CD33-CD3 ankyrin repeat protein, no half-life extension; also called DARPin® #8; not shown: N-terminal His-tag
Kd [6]: ~35 nM | koff [6]: 0.0015 s⁻¹ | kon [6]: ~49000 M⁻¹ s⁻¹ | EC50 [7]: 250 to 400 nM

B5: DARPin® protein #14 (designed binder)
chain: DLGKKLLEAARAGQDDEVRELLKAGADVNAKDYFSHTPLHLAARNGHLKIVEVLLKAGADVNAKDFAGKTPLHLAAADGHLEIVEVLLKAGADVNAQDIFGKTPADIAADAGHEDIAEVLQKAAGSPTPTPTTPTPTPTTPTPTPTGSDLGKKLLEAARAGQDDEVRILMANGADVNALDWLGHTPLHLAAYEGHLEIVEVLLKNGADVNAIDDNNGFTPLHLAAIDGHLEIVEVLLKNGADVNAQDKFGKTAFDISIDNGNEDLAEILQKAAGSPTPTPTTPTPTPTTPTPTPTGSDLGDKLLLAATSGQDDEVRILLAAGADVNAKDYDGDTPLHLAADEGHLEIVEVLLKAGADVNAKDYSGSTPLHAAAAYGHLEIVEVLLKAGADVNAQDVFGYTPADLAAYVGHEDIAEVLQKAAGSPTPTPTTPTPTPTTPTPTPTGSDLGQKLLEAAWAGQLDEVRILLKAGADVNAKNSRGWTPLHTAAQTGHLEIFEVLLKAGADVNAKTNKRVTPLHLAAALGHLEIVEVLLKAGADVNARDTWGTTPADLAAKYGHRDIAEVLQKAA
notes: HSA-CD123-CD33-CD3, half-life extended form of #10; not shown: His-tag implied by anti-penta-His detection
EC50 (read off the curve) [8]: ~20 nM

The next lines start with results.

EC50 [3]: 1.97 nM | Kd [4]: 4.8 nM | Kd [5]: 0.18 nM
B1: DARPin® protein #29 (designed binder)
chain: DLGYKLLQAAYDGQLDEVRILLKAGADVNAKDSRGQTPLHYAASIGHLEIVEVLLKAGADVNAKDDHGWTPLHLAAWSGHLEIVEVLLKAGADVNAQDQEGTTPADLAAVQGHQDIAEVLQKAAGSPTPTPTTPTPTPTTPTPTPTGSDLGVKLLLAASRGQLDEVRILLKAGADVNAKDIDEGYTPLHIAAYYGHLEIVEVLLKAGADVNAKDRYGKTPLHLAAISGHLEIVEVLLKAGADVNAQDDKGDTPADLAADYGHQDIAEVLQKAAGSPTPTPTTPTPTPTTPTPTPTGSDLGQKLLEAAWAGQDDEVRELLKAGADVNAKNSRGWTPLHTAAQTGHLEIFEVLLKAGADVNAKDDKGVTPLHLAAALGHLEIVEVLLKAGADVNAQDSWGTTPADLAAKYGHEDIAEVLQKAA
notes: CD70-CD33-CD3; not shown: N-terminal His-tag
binding result [1]: no binding (tested: 100 nM (highest concentration)) | binding result [2]: no binding (tested: 100 nM (highest concentration))

binding result [8]: no binding
B3: DARPin® protein #7 (designed binder)
chain: B2 chain with N329D, R331Q
notes: CD123-CD33-CD3 ankyrin repeat protein, no half-life extension; also called DARPin® #7; not shown: N-terminal His-tag

binding result [8]: no binding (tested: about 3000 nM)
B4: DARPin® protein 11 (designed binder)
single chain: B5 chain with L460D, I465E, N477D, R479Q, T510D, N511D, R513G, R542Q, T544S, R559E
notes: half-life extended format of DARPin® protein #7; also called HSA-CD123-CD33-CD3
